Reference: article PMC7267768, “Three kinds of treatment with Homoharringtonine, Hydroxychloroquine or shRNA and their combination against coronavirus PEDV in vitro” (Virology Journal, 2020)

Biological target: T1, HR1 peptide of the PEDV spike glycoprotein (optimal focused HR1 domain) (porcine epidemic diarrhea virus (PEDV))
T1 construct: Spike glycoprotein of porcine epidemic diarrhea virus (PEDV), heptad repeat 1; numbers count on: GenBank ALS35469.1; source: synthetic peptide (China Peptides)
T1 peptide: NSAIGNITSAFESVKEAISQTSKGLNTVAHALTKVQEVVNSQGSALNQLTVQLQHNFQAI
Assay: SEC; HR1 and tHR2 mixed, each at 15 uM, incubated 2 h; Superdex G75, 20 mM Tris-HCl pH 8.0; mass estimated against protein standards
Conditions: both partners purified

B1: truncated HR2 peptide tHR2 of the PEDV spike glycoprotein (1278-1316, 39Aa) (peptide)
peptide: LTGEIADLEQRSESLRNTTEELRSLINNINNTLVDLEWL
notes: Spike glycoprotein of porcine epidemic diarrhea virus (PEDV), truncated heptad repeat 2, residues 1278-1316 (39 residues); the predicted HR2 domain is 1263-1314; numbers count on: GenBank ALS35469.1; source: synthetic peptide (China Peptides)
stoichiometry N: ~1 tHR2 per HR1 (3:3)
